Experiment [1] concerns the target M2-1 fused to the N2 complementation fragment of NanoLuc (human respiratory syncytial virus, strain Long). The experiment can be described thus: split reporter (BiFC, NanoBiT); NanoLuc two-hybrid (N2H) complementation in HEK293T cells, 24 h after transfection; lysates incubated 1 h with 100 µg/ml RNAse A; normalized luminescence ratio (NLR) over control protein pairs.

In experiment [2] the target is M2-1 fused to GFP, expressed by the recombinant virus RSV-M2-1-GFP (human respiratory syncytial virus, strain Long). The experiment can be described thus: co-IP; GFP-Trap beads on lysates of HEp-2 cells infected with RSV-M2-1-GFP, 14 h p.i., without RNAse in the lysis; immunoblot.
Experiment [3] has the same target. The experiment can be described thus: co-IP; GFP-Trap beads on lysates of HEp-2 cells infected with RSV-M2-1-GFP or RSV-GFP (control), 14 h p.i., with RNAse (RNAse A or broad-spectrum nuclease) in the lysis; Tris 10 mM pH 7.5, NaCl 150 mM, IGEPAL CA-630 0.5%; overnight at 4 °C; immunoblot.

With “PABPC1 fragment 492-636 fused to the N1 fragment of NanoLuc (from UniProt P11940 492-636) (domain or fragment)”, the NLR as percent of the signal of the whole PABPC1 in experiment [1] stood at 50%.
Consider “cytoplasmic polyA-binding protein 1 (PABPC1), endogenous in HEp-2 cells (from UniProt P11940 1-636) (natural protein)”, for which the percent of total PABPC1 in the input co-immunoprecipitated in experiment [2] came to 5.71%; in experiment [3], 2.08%.

The values above are taken from paper PMC6813310.
